Data as given in patent US20250249118A1 (Eli Lilly, published 2025).

What was measured:
[1] = molecular target: T1, cynomolgus TfR ECD (cynomolgus); test: SPR, Biacore 8K, 37 C, TfR ECD amine-coupled on CM4 chip, TBP as analyte, 2-state model; SEM 2.565 nM, n = 3
T1 chain: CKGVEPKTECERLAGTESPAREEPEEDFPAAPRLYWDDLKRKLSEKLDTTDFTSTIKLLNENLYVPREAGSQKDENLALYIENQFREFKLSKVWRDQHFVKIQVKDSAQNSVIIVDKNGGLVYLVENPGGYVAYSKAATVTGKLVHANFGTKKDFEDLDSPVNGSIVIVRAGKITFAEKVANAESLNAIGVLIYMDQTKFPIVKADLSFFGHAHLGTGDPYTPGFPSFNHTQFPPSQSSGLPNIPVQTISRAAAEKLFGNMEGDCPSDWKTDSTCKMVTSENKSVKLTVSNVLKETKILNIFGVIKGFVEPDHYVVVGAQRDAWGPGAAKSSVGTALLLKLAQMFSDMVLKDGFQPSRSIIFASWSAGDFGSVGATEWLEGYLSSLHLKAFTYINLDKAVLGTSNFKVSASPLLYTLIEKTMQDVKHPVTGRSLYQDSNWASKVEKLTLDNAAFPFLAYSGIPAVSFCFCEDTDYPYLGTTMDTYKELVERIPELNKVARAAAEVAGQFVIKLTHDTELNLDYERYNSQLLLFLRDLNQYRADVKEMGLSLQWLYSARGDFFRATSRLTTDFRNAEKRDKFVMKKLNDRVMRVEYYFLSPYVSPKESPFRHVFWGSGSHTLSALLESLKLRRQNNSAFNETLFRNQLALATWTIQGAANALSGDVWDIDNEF
Description: (§1) Target human and cynomologus TfR ECD's were immobilized on a CM4 chip (Cytiva P/N 29104989) using standard NHS-EDC amine coupling. The TfR binding proteins were prepared at a final concentration of 0.3, 0.1, 0.033, 0.01, 0.0033, 0.001, 0.00033, 0.0001 μM respectively by dilution of stock solution into running buffer.
(§2) Binding analysis was performed in a multi-cycle kinetics manner. Each analysis cycle consists of (1) injection of the lowest to highest concentration proteins over all Fc at 50 μL/min for 140 seconds followed by return to buffer flow for 400 seconds to monitor dissociation phase; (2) regeneration of chip surfaces with injection of 3M magnesium chloride, for 30 seconds at 100 μL/min over all cells; and (3) equilibration of chip surfaces with a 50 μL (30-sec) injection of HBS-EP+. Data were processed using standard double-referencing and fit to a 2-state binding model using Biacore 8K Evaluation software, to determine the association rate (kₒₙ, M⁻¹ s⁻¹ units), dissociation rate (koff, s⁻¹ units), and Rₘₐₓ (RU units). The equilibrium dissociation constant (KD) is calculated from the relationship KD=koff/kₒₙ, and is in molar units.

[2] = molecular target: T2, human TfR ECD (human, UniProt P02786 89-760); test: SPR, Biacore 8K, 37 C, TfR ECD amine-coupled on CM4 chip, TBP as analyte, 2-state model; SEM 7.949 nM, n = 3
T2 construct: extracellular domain; also called human Transferrin Receptor 1 extracellular domain
Description: as §1, §2

B1: TBP4 (One Arm Heteromab 1, A378C) (antibody)
heavy: EVQLVESGGGLVKPGGSLRLSCVASGFTFSSYSMNWVRQAPGKGLEWVSSISSSSSYIYYADSVKGRFTISRDNAKNSLYLQMNSLRAEDTAVYYCARRHGYSNSDAFDNWGQGTLVTVSSASTKGPSVFPLAPCSRSTSESTAALGCLVKDYFPEPVTVSWNSGALTSGVHTFPAVLQSSGLYSLSSVVTVPSSSLGTKTYTCNVDHKPSNTKVDKRVESKYGPPCPPCPAPEAAGGPSVFLFPPKPKDTLMISRTPEVTCVVVDVSQEDPEVQFNWYVDGVEVHNAKTKPREEQFNSTYRVVSVLTVLHQDWLNGKEYKCKVSNKGLPSSIEKTISKAKGQPREPQVSTLPPSQEEMTKNQVSLMCLVYGFYPSDICVEWESNGQPENNYKTTPPVLDSDGSFFLYSVLTVDKSRWQEGNVFSCSVMHEALHNHYTQKSLSLSLG
light: DIQMTQSPSAMSASVGDRVTITCRASQGISHYLVWFQQKPGKVPKRLIYAASSLQSGVPSRFSGSGSGTEFTLTISSLQPEDFATYYCLQHNSYPWTFGQGTKVEIKRTVAAPSVFIFPPSDEQLKSGTASVVCLLNNFYPREAKVQWKVDNALQSGNSQESVTEQDSKDSTYSLSSTLTLSKADYEKHKVYACEVTHQGLSSPVTKSFNRGEC
Fc: ESKYGPPCPPCPAPEAAGGPSVFLFPPKPKDTLMISRTPEVTCVVVDVSQEDPEVQFNWYVDGVEVHNAKTKPREEQFNSTYRVVSVLTVLHQDWLNGKEYKCKVSNKGLPSSIEKTISKAKGQPREPQVYTLPPSQGDMTKNQVQLTCLVKGFYPSDICVEWESNGQPENNYKTTPPVLDSDGSFFLASRLTVDKSRWQEGNVFSCSVMHEALHNHYTQKSLSLSLG
notes: One-arm heteromab: HC1 with LC1, plus an Fc-only HC2; IgG4 PAA; also called OAH1; copies: 1 + 1 + 1
B1 gave a Kd [1] of 300 nM and a Kd [2] of 154 nM.
